The results in this text go back to publication PMC5625350 (Nature structural & molecular biology, 2017).

The data set “crystal structure” deals with the molecule itself. Put plainly: crystal structure.
The data set “cross-linking” deals with the molecule itself. Put plainly: cross-linking.
The data set “SAXS” deals with the molecule itself. Put plainly: SAXS.
Data set [1] concerns the target Rad50 dCC (in MRN);Mre11;Nbs1 (Homo sapiens;Homo sapiens;Homo sapiens, UniProt Q92878;P49959;O60934 1-1312;1-708;1-754, del614-668;del702-750||). In words: EMSA. (Mobility shift assays separate free from complexed probe on a gel.)
The target of data set [2] is Rad50 WT (in MRN);Mre11;Nbs1 (Homo sapiens;Homo sapiens;Homo sapiens, UniProt Q92878;P49959;O60934 1-1312;1-708;1-754, ||). In words: EMSA.
The data set “SEC” concerns the molecule itself. In words: SEC. (In general: SEC sorts molecules by how far they enter the pores of the column.)

B1: human Rad50 hook and coiled-coil domain, HsRad50HCC182 (residues 585 to 766) (domain or fragment, UniProt Q92878 585-766, looked up)
chain: KEINQTRDRLAKLNKELASSEQNKNHINNELKRKEEQLSSYEDKLFDVCGSQDFESDLDRLKEEIEKSSKQRAMLAGATAVYSQFITQLTDENQSCCPVCQRVFQTEAELQEVISDLQSKLRLAPDKLKSTESELKKKEKRRDEMLGLVPMRQSIIDLKEKEIPELRNKLQNVNRDIQRLKN
B1: the binding result in “crystal structure” was “binds”.

B2: Rad50-48 (S679R, P682R) Rad50HCC182 K599C (domain or fragment, human, UniProt Q92878 585-766, looked up)
chain: KEINQTRDRLAKLNCELASSEQNKNHINNELKRKEEQLSSYEDKLFDVCGSQDFESDLDRLKEEIEKSSKQRAMLAGATAVYSQFITQLTDENQRCCRVCQRVFQTEAELQEVISDLQSKLRLAPDKLKSTESELKKKEKRRDEMLGLVPMRQSIIDLKEKEIPELRNKLQNVNRDIQRLKN
For the molecule B2, in the data set “cross-linking”, the binding result is reported as “binds”.

B3: HsRad50HCC182 S738C (domain or fragment, human, UniProt Q92878 585-766, looked up)
chain: KEINQTRDRLAKLNKELASSEQNKNHINNELKRKEEQLSSYEDKLFDVCGSQDFESDLDRLKEEIEKSSKQRAMLAGATAVYSQFITQLTDENQSCCPVCQRVFQTEAELQEVISDLQSKLRLAPDKLKSTESELKKKEKRRDEMLGLVPMRQCIIDLKEKEIPELRNKLQNVNRDIQRLKN
Take B3: the binding result in “cross-linking” is “binds”.

B4: HsRad50HCC182 K599C (domain or fragment, human, UniProt Q92878 585-766, looked up)
chain: KEINQTRDRLAKLNCELASSEQNKNHINNELKRKEEQLSSYEDKLFDVCGSQDFESDLDRLKEEIEKSSKQRAMLAGATAVYSQFITQLTDENQSCCPVCQRVFQTEAELQEVISDLQSKLRLAPDKLKSTESELKKKEKRRDEMLGLVPMRQSIIDLKEKEIPELRNKLQNVNRDIQRLKN
For B4, the binding result in the data set “cross-linking” is listed as “binds”.

B5: HsRad50HCC construct that contains the two interfaces (residues 635 to 730) (domain or fragment, human, UniProt Q92878 635-730, looked up)
chain: SQDFESDLDRLKEEIEKSSKQRAMLAGATAVYSQFITQLTDENQSCCPVCQRVFQTEAELQEVISDLQSKLRLAPDKLKSTESELKKKEKRRDEML
In the case of B5, the binding result in the data set “SAXS” is listed as “binds”.

B6: 83-mer dsDNA (dsDNA)
DNA 1: TTGATAAGAGGTCATTTTTGCGGATGGCTTAGAGCTTAATTGCTGAATCTGGTGCTGTAGCTCAACATGTTTTAAATATGCAA
DNA 2: TTGCATATTTAAAACATGTTGAGCTACAGCACCAGATTCAGCAATTAAGCTCTAAGCCATCCGCAAAAATGACCTCTTATCAA
Take B6: the binding result in data set [1] and in data set [2] was “binds” in each case.

B7: Rad50ΔCC (Rad50HCC182 with residues 614-668 and 702-750 deleted) (domain or fragment, human, UniProt Q92878 585-766, looked up)
chain: KEINQTRDRLAKLNKELASSEQNKNHINNFITQLTDENQSCCPVCQRVFQTEAELQEVISDLRNKLQNVNRDIQRLKN
On to B7, for which, in “SEC”, the binding result was “binds”.

B8: Rad50ΔCC K599C (domain or fragment, human, UniProt Q92878 585-766, looked up)
chain: KEINQTRDRLAKLNCELASSEQNKNHINNFITQLTDENQSCCPVCQRVFQTEAELQEVISDLRNKLQNVNRDIQRLKN
For the molecule B8, the binding result in “cross-linking” was “binds”.
